As a reminder, the Km is the substrate concentration at which the rate is half of its maximum. For orientation: Vmax means the top rate of the reaction or transport when substrate is in excess. In general, kcat refers to the maximal rate divided by the concentration of active sites. Usually kcat/Km stands for the turnover number divided by the Michaelis constant.

The text below walks through data of paper PMC4858972, “Structural and Biochemical Characterization of the Early and Late Enzymes in the Lignin β-Aryl Ether Cleavage Pathway from Sphingobium sp. SYK-6” (The Journal of Biological Chemistry, 2016).

Substrate in data set [1]: COc1cc([C@H](O)[C@@H](CO)Oc2ccccc2OC)ccc1O
The data set is described as follows: purified protein. It is filed as biochemical, Sphingobium sp. SYK-6. The settings on record: 5 mM NAD+, pH 9.0, 30 °C.

Substrate in data set [2]: COc1cc([C@H](O)[C@H](CO)Oc2ccccc2OC)ccc1O
The experiment in a line: purified protein. The settings on record: 5 mM NAD+, pH 9.0, 30 °C. It counts as biochemical, Sphingobium sp. SYK-6.

B1: LigL (Sphingobium sp. SYK-6) (protein)
chain: MDIAGTTAFITGGASGIGFGIAQRLLANGARLVLADIRQDHLDEARQFFEERQQGRNVHTIRLDVSDRAQMAEAARECEAVMGGPDILINNAGIDPSGPFKDATYQDWDYGLAINLMGPINGIMAFTPGMRARGRGGHIVNTASLAGLTPMPSFMAIYATAKAAVITLTETIRDSMAEDNIGVTVLMPGPIKSRIHESGQNRPERFRAGSGLAETEQQLAKRVVADNWMEPTEVGDMIVDAIVHNKLYVSTHGNWRETCEARFQALLDSMPEARPFDFGASLAVPKEEA
notes: synthetic gene in pCPD, C-terminal V. cholerae MARTX cysteine protease domain (CPD)-His tag self-cleaved after a Leu, expressed in E. coli (NEB Express), biological dimer
Turning to B1, in “purified protein [1]”, the Km is 20.3 ± 3.2 µM, the Vmax stood at 21.8 µmol/min/mg, the kcat stood at 4.9 ± 0.3 s⁻¹ and the kcat/Km came to 240000 ± 41000 M⁻¹ s⁻¹. Also, in “purified protein [2]”, the Km was found to be 10.9 ± 0.8 µM, the Vmax amounted to 33.7 µmol/min/mg, the kcat is 7.5 ± 0.1 s⁻¹ and the kcat/Km turned out to be 688000 ± 53000 M⁻¹ s⁻¹.
